The data set has as its target T1, TFAM (unmodified) (Homo sapiens, UniProt Q00059 43-246).
T1 sequence: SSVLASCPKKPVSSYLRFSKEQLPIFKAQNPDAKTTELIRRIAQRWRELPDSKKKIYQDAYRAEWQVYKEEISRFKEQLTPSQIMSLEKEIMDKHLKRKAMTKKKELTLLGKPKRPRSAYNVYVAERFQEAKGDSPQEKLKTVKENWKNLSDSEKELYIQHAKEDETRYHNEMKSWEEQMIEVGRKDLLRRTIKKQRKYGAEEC
As to the kind of experiment: EMSA; 40 nM DNA; 50, 25, 12 bp per TFAM; no gel shift (legend: very low affinity); pUC19: 50 mM Tris-acetate pH 8.0, 100 mM K acetate, 5 mM Mg acetate, 1 mM DTT, 37 C 30 min, 1% agarose at 4 C; poly-T: 25 mM Tris-HCl pH 8.0, 70 mM NaCl, 10 mM. As to conditions: protein: recombinant; tags: N-terminal His6 removed with TEV protease; label: 5'-32P; single strand.

Consider TTTTTTTTTTTTTTTTTTTTTTTTTTTTTT (ssDNA) [poly-T ssDNA 30-mer], for which the binding result is “no binding”.

These data come from paper PMC9006650, “Phosphorylation and acetylation of mitochondrial transcription factor A promote transcription processivity without compromising initiation or DNA compaction”.
